Measurements as given in patent US20160185865A1.

Target: human CC chemokine receptor 4 (CCR4) (human) (UniProt P51679)
Assay: binding curve of FIG. 20B; cells not given

Sequence of human CC chemokine receptor 4 (CCR4) (human) (P51679 whole entry): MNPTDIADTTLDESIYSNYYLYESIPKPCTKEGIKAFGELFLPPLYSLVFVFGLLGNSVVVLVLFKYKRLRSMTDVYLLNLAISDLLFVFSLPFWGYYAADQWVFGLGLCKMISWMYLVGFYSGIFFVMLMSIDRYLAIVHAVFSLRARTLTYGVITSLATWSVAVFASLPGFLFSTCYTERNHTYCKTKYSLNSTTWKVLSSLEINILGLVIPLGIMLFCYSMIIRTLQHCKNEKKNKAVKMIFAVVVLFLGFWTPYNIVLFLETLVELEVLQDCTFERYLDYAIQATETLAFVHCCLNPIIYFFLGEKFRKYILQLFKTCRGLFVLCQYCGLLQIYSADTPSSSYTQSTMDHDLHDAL

B1: KM2760 (anti-CCR4 chimeric antibody) (antibody, from another filing, V domains shown)
VH: EVQLVESGGDLMKPGGSLKISCAASGFIFSNYGMSWVRQTPDMRLEWVATISSASTYSYYPDSVKGRFTISRDNAENSLYLQMNSLRSEDTGIYYCGRHSDGNFAFGYWGRGTLVTVSA
VL: DVLMTQTPLSLPVSLGDQASISCRSSRNIVHINGDTYLEWYLQRPGQSPKLLIYKVSNRFSGVPDRFSGSGSGTDFTLKISRVEAEDLGVYYCFQGSLLPWTFGGGTRLEIRR
EC50: 5.07 nM
